# Laboratory results reported in publication PMC12173559, “The Functional DPP4 Receptor Is an Indispensable Factor Mediating the Immune Performance of Mucosal Vaccines for Middle East Respiratory Syndrome” (Transboundary and Emerging Diseases, 2025).
# T1: MERS-CoV receptor binding domain (RBD), biotinylated (MERS-CoV, UniProt K9N5Q8)
# T1 construct: also called MERS-CoV RBD; MERS-CoV spike RBD
# T1 sequence: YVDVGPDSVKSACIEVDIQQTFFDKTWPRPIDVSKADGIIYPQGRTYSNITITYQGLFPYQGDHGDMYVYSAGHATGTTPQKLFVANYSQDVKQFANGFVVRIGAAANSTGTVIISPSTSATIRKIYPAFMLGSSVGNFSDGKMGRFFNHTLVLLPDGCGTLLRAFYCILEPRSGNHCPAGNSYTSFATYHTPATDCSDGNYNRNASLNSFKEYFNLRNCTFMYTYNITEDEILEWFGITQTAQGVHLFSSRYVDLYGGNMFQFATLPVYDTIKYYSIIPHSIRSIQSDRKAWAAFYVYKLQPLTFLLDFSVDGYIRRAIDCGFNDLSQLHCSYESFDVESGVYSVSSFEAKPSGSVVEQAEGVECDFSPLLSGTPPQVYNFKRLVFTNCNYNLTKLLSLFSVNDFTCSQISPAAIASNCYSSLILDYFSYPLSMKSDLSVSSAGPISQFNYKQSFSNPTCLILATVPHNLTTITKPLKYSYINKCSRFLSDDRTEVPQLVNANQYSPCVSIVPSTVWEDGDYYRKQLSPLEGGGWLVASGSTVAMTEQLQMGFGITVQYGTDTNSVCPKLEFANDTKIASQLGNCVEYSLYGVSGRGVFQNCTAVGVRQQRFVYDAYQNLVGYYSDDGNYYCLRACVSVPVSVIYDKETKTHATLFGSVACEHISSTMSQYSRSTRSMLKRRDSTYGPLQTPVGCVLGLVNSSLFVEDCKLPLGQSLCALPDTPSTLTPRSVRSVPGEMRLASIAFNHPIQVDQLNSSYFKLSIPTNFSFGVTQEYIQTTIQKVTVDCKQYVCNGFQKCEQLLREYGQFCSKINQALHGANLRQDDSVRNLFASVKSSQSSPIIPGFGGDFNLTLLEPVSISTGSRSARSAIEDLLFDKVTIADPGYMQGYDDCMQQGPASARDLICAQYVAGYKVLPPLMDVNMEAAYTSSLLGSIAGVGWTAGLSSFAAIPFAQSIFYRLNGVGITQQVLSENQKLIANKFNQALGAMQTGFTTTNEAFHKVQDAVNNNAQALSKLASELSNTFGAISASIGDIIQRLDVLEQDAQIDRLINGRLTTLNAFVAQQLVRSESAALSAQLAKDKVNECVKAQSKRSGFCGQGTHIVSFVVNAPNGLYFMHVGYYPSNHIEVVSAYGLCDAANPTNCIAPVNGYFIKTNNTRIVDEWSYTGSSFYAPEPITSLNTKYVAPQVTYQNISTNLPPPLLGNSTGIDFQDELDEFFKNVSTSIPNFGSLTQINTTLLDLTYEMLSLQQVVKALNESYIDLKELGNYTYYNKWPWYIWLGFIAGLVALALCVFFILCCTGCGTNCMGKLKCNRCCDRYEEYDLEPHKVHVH
# B1: human DPP4 (receptor)
# chain: SRKTYTLTDYLKNTYRLKLYSLRWISDHEYLYKQENNILVFNAEYGNSSVFLENSTFDEFGHSINDYSISPDGQFILLEYNYVKQWRHSYTASYDIYDLNKRQLITEERIPNNTQWVTWSPVGHKLAYVWNNDIYVKIEPNLPSYRITWTGKEDIIYNGITDWVYEEEVFSAYSALWWSPNGTFLAYAQFNDTEVPLIEYSFYSDESLQYPKTVRVPYPKAGAVNPTVKFFVVNTDSLSSVTNATSIQITAPASMLIGDHYLCDVTWATQERISLQWLRRIQNYSVMDICDYDESSGRWNCLVARQHIEMSTTGWVGRFRPSEPHFTLDGNSFYKIISNEEGYRHICYFQIDKKDCTFITKGTWEVIGIEALTSDYLYYISNEYKGMPGGRNLYKIQLSDYTKVTCLSCELNPERCQYYSVSFSKEAKYYQLRCSGPGLPLYTLHSSVNDKGLRVLEDNSALDKMLQNVQMPSKKLDFIILNETKFWYQMILPPHFDKSKKYPLLLDVYAGPCSQKADTVFRLNWATYLASTENIIVASFDGRGSGYQGDKIMHAINRRLGTFEVEDQIEAARQFSKMGFVDNKRIAIWGWSYGGYVTSMVLGSGSGVFKCGIAVAPVSRWEYYDSVYTERYMGLPTPEDNLDHYRNSTVMSRAENFKQVEYLLIHGTADDNVHFQQSAQISKALVDVGVDFQAMWYTDEDHGIASSTAHQHIYTHMSHFIKQCFSLP
# Biological target: T1, MERS-CoV receptor binding domain (RBD), …
# Assay: BLI; […] (10 µg/mL) […] (SA) biosensor for 300 s; analyte in kinetic buffer (PBST, 0.1% BSA) […], association 120 s, dissociation 180 s; […]
# Conditions: both partners purified
binder,measurement,value
B1,Kd,55.1 nM
